Patent publication US20230295324A1 (published 2023)

Experiments:
[1] = molecular target: T1, human OX40 protein (Acro biosystem, #OX0-H5224) (human, UniProt P43489 29-216); test: BLI, antibody on ProA sensor, 1:1 global fit
T1 construct: Bought recombinant protein
T1 sequence (looked up): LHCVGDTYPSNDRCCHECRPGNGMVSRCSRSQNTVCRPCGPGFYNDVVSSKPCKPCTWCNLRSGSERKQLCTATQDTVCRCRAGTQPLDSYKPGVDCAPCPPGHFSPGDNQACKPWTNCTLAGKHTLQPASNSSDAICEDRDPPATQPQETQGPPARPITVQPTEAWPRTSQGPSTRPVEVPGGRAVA
Protocol: (§1) The binding kinetics between the antigen and the antibody was analyzed by the Biolayer Interferometry (BLI) technique using an Octet Red 96e molecular interaction analyzer (Fortebio).
(§2) The association and dissociation signals between the OX40 antibodies and OX40 proteins were recorded by Octet Red 96 in real time. When data analysis was performed using Octet Data Analysis software (Fortebio, version 11.0), 0 nM was used as a reference hole, and reference subtraction was performed; the “1:1 Global fitting” method was selected to fit the data, and the kinetics parameters of the binding of antigens to antigen-binding proteins were calculated, with kon(1/Ms) values, kdis(1/s) values and KD(M) values obtained.

[2] = molecular target: T2, cynomolgus monkey OX40 protein (Novoprotein, #CB17) (cynomolgus monkey); test: BLI, antibody on ProA sensor, 1:1 global fit
T2 construct: Bought recombinant protein; also called cyno OX40
Protocol: as §1, §2

[3] = molecular target: T3, human OX40 on cells (CHO-K1/hu OX40) (human, UniProt P43489 29-277); test: cell-based or functional assay
T3 sequence (looked up): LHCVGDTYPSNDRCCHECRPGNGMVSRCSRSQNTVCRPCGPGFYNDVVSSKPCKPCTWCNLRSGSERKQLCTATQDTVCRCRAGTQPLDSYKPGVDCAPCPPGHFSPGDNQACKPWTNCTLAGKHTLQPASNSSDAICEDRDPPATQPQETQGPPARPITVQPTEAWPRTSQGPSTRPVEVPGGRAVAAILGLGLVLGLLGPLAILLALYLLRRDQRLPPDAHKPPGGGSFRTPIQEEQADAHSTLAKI

[4] = molecular target: T4, human CD40 on CHO-K1 cells (CHO-K1/hu CD40) (human, UniProt P25942 21-277); test: flow cytometry on CHO-K1/hu CD40 cells
T4 construct: whole, on cells
Protocol: This example is intended to investigate the specificity of in vitro binding of anti-human OX40 HCAb monoclonal antibodies by detecting 3 receptors of the TNF tumor necrosis factor receptor superfamily and ICOS by flow cytometry. The antibody binding assay at the cellular level was performed using a CHO-K1 cell strain overexpressing human OX40 (CHO-K1/hu OX40), a CHO-K1 cell strain overexpressing human CD40 (CHO-K1/hu CD40, Beijing KYinno, #KC-1286), a CHO-K1 cell strain overexpressing human 4-1BB (CHO-K1/hu 4-1BB, Genscript, #M00538) and an HEK293 cell strain overexpressing human ICOS (HEK293T/ICOS, Genscript, #KC-0210). Briefly, these cells were digested and resuspended in F12K or DMEM complete medium, and the cell density was adjusted to 1×10⁶ cells/mL. The cells were seeded in a 96-well V-bottom plate at 100 μL/well, and centrifuged, and then the supernatant was discarded. Then, the test antibodies diluted in a 3-fold gradient were added at 100 μL/well. The cells were incubated at 4° C. for 1 h away from light. Thereafter, the cells in each well were rinsed twice with 100 μL of pre-cooled PBS, and centrifuged at 500 g at 4° C. for 5 min, and then the supernatant was discarded. […] Finally, the cells in each well were resuspended in 200 μL of pre-cooled PBS, and the fluorescence signal values were read using NovoCyte flow cytometer (ACEA Biosciences).

[5] = molecular target: T1, human OX40 protein (Acro biosystem, …); test: ELISA, coated human OX40 protein
[6] = molecular target: T3, human OX40 on cells (CHO-K1/hu OX40); test: cell-based or functional assay; remark: listed apart in the source

T4 sequence (P25942 21-277): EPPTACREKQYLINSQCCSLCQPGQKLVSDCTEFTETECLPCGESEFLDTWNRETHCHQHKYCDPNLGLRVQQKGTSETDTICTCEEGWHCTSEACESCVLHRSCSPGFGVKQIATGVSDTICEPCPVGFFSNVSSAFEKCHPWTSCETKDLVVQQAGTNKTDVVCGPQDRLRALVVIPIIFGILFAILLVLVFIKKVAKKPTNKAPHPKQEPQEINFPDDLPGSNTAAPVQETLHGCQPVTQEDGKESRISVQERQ

B1: PR002067 (antibody, human IgG1, V domains shown)
VH: EVQLLESGGGLVQPGGSLRLSCAASGFTFSSYAMSWVRQAPGKGLEWVSAISGRGGSTFYADSVRGRFTISRDNSKNTLYLQMNSLRAEDTAMYYCVDGTTGTTDVDYWGQGTLVTVSS
notes: no light chain; also called anti-OX40 HCAb antibody
Which Kd [1] does the source give for B1 here?
The Kd was 4.16 nM.

And the koff [1]?
The koff was 0.000156 s⁻¹.

What about the kon [1] of the same binder?
The kon was 37400 M⁻¹ s⁻¹.

What about the Kd [2] of the same binder?
Its Kd is 19.2 nM.

What about the koff [2] of the same binder?
Its koff is 0.000475 s⁻¹.

What about the kon [2] of the same binder?
Its kon is 24800 M⁻¹ s⁻¹.

And the “EC50, HEK293/OX40/NF-kb luciferase reporter” value [3]?
Its value is 5.37 nM.

What about the “Maximum fluorescence signal value, HEK293/OX40/NF-kb luciferase reporter” value [3] of the same binder?
Its value is 137000 luminescence.

Does B1 bind [4]?
Result: no binding

What about the EC50 [5] of the same binder?
The EC50 was 0.0806 nM.

And the “Maximum OD” value [5]?
The value was 2.38 OD.

And the “EC50, IFN-γ release by human T cells with OKT3 and CHO-K1-CD32b cells” value [6]?
The value was 0.0863 nM.

And the “Maximum IFN-γ release value” [6]?
Its value is 2000.
